Results: patent US20180057601A1 (PIERRE FABRE MEDICAMENT, published 2018)

What was measured:
Peptide_024 = molecular target: T1, Peptide_024; assay: peptide microarray: immobilized 15-mer peptides, Cy5 anti-human IgG; signal as ratio to control antibody ch9G4
T1 construct: immobilized on the microarray
T1 peptide: GFCDMNGKCEKRVQD
Description: (§1) Peptide micro array epitope characterization was performed by JPT Peptide Technologies GmbH, Berlin, Germany. In brief the analysis was performed as follows: 32-linear 15-meric peptide sequences representing an overlapping peptide scan (15/12) through the ADAM17 membrane proximal domain were synthesized (Table 5) and immobilized on microarray slides four additional peptides were included by JPT as internal process control spots. Moreover, human IgG and mouse IgG were co-immobilized on the microarray to serve as assay controls. Furthermore, rhADAM17 protein was co-immobilized as an additional control.
(§2) The assay was performed using a Multiwell incubation chamber. Microarrays were incubated with 100 μg/ml 1022C3 or control antibody ch9G4 diluted in blocking buffer (Pierce International, Superblock TBS T20, order No 37536) overnight at 4° C. Microarrays were then incubated with 1 μg/ml Cy5 labelled secondary antibody (anti-human IgG, JIR, 109-175-098) diluted in blocking buffer for 60 min at 30° C. Microarrays were dried. Before each step microarrays were washed with washing buffer (50 mM TBS-buffer, 0.1% Tween20 (v/v), pH 7.2).
(§3) Microarrays were scanned using a high resolution fluorescence scanner. Laser settings and applied resolution were identical for all performed measurements. The resulting images were analyzed and quantified using spot-recognition software GenePix (Molecular Devices). For each spot, the mean signal intensity was extracted (between 0 and 65535 arbitrary units). The ration of signal intensity between 1022C3 and the control antibody ch9G4 was compared between multiple experiments and peptides with a signal three fold higher 1022C3 than ch9G4 were identified (FIG. 3).

Peptide_022 = molecular target: T2, Peptide_022; assay: as above
T2 construct: immobilized on the microarray
T2 peptide: GKPCTVGFCDMNGKC
Description: as §1, §2, §3

Peptide_025 = molecular target: T3, Peptide_025; assay: as above
T3 construct: immobilized on the microarray
T3 peptide: DMNGKCEKRVQDVIE
Description: as §1, §2, §3

Peptide_014 = molecular target: T4, Peptide_014; assay: as above
T4 construct: immobilized on the microarray
T4 peptide: CCRDLSGRCVPYVDA
Description: as §1, §2, §3

Peptide_028 = molecular target: T5, Peptide_028; assay: as above
T5 construct: immobilized on the microarray
T5 peptide: VQDVIERFWDFIDQL
Description: as §1, §2, §3

Peptide_029 = molecular target: T6, Peptide_029; assay: as above
T6 construct: immobilized on the microarray
T6 peptide: VIERFWDFIDQLSIN
Description: as §1, §2, §3

Peptide_021 = molecular target: T7, Peptide_021; assay: as above
T7 construct: immobilized on the microarray
T7 peptide: LRKGKPCTVGFCDMN
Description: as §1, §2, §3

Peptide_009 = molecular target: T8, Peptide_009; assay: as above
T8 construct: immobilized on the microarray
T8 peptide: LESCACNETDNSCKV
Description: as §1, §2, §3

Peptide_011 = molecular target: T9, Peptide_011; assay: as above
T9 construct: immobilized on the microarray
T9 peptide: NETDNSCKVCCRDLS
Description: as §1, §2, §3

Peptide_026 = molecular target: T10, Peptide_026; assay: as above
T10 construct: immobilized on the microarray
T10 peptide: GKCEKRVQDVIERFW
Description: as §1, §2, §3

Peptide_027 = molecular target: T11, Peptide_027; assay: as above
T11 construct: immobilized on the microarray
T11 peptide: EKRVQDVIERFWDFI
Description: as §1, §2, §3

Peptide_004 = molecular target: T12, Peptide_004; assay: as above
T12 construct: immobilized on the microarray
T12 peptide: CKDGKCIPFCEREQQ
Description: as §1, §2, §3

Peptide_008 = molecular target: T13, Peptide_008; assay: as above
T13 construct: immobilized on the microarray
T13 peptide: EQQLESCACNETDNS
Description: as §1, §2, §3

Peptide_030 = molecular target: T14, Peptide_030; assay: as above
T14 construct: immobilized on the microarray
T14 peptide: RFWDFIDQLSINTFG
Description: as §1, §2, §3

Peptide_023 = molecular target: T15, Peptide_023; assay: as above
T15 construct: immobilized on the microarray
T15 peptide: CTVGFCDMNGKCEKR
Description: as §1, §2, §3

Peptide_001 = molecular target: T16, Peptide_001; assay: as above
T16 construct: immobilized on the microarray
T16 peptide: DTVCLDLGKCKDGKC
Description: as §1, §2, §3

Peptide_019 = molecular target: T17, Peptide_019; assay: as above
T17 construct: immobilized on the microarray
T17 peptide: EQKNLFLRKGKPCTV
Description: as §1, §2, §3

Peptide_010 = molecular target: T18, Peptide_010; assay: as above
T18 construct: immobilized on the microarray
T18 peptide: CACNETDNSCKVCCR
Description: as §1, §2, §3

Peptide_018 = molecular target: T19, Peptide_018; assay: as above
T19 construct: immobilized on the microarray
T19 peptide: VDAEQKNLFLRKGKP
Description: as §1, §2, §3

Peptide_032 = molecular target: T20, Peptide_032; assay: as above
T20 construct: immobilized on the microarray
T20 peptide: IDQLSINTFGKFLAD
Description: as §1, §2, §3

Peptide_031 = molecular target: T21, Peptide_031; assay: as above
T21 construct: immobilized on the microarray
T21 peptide: DFIDQLSINTFGKFL
Description: as §1, §2, §3

Peptide_007 = molecular target: T22, Peptide_007; assay: as above
T22 construct: immobilized on the microarray
T22 peptide: CEREQQLESCACNET
Description: as §1, §2, §3

Peptide_015 = molecular target: T23, Peptide_015; assay: as above
T23 construct: immobilized on the microarray
T23 peptide: DLSGRCVPYVDAEQK
Description: as §1, §2, §3

Peptide_016 = molecular target: T24, Peptide_016; assay: as above
T24 construct: immobilized on the microarray
T24 peptide: GRCVPYVDAEQKNLF
Description: as §1, §2, §3

Peptide_006 = molecular target: T25, Peptide_006; assay: as above
T25 construct: immobilized on the microarray
T25 peptide: IPFCEREQQLESCAC
Description: as §1, §2, §3

Peptide_012 = molecular target: T26, Peptide_012; assay: as above
T26 construct: immobilized on the microarray
T26 peptide: DNSCKVCCRDLSGRC
Description: as §1, §2, §3

Peptide_005 = molecular target: T27, Peptide_005; assay: as above
T27 construct: immobilized on the microarray
T27 peptide: GKCIPFCEREQQLES
Description: as §1, §2, §3

[1] = molecular target: ADAM17 at the plasma membrane of A431 cells (human, UniProt P78536 215-824); assay: cell-based or functional assay
ADAM17 at the plasma membrane of A431 cells, sequence (P78536 215-824 limits assumed): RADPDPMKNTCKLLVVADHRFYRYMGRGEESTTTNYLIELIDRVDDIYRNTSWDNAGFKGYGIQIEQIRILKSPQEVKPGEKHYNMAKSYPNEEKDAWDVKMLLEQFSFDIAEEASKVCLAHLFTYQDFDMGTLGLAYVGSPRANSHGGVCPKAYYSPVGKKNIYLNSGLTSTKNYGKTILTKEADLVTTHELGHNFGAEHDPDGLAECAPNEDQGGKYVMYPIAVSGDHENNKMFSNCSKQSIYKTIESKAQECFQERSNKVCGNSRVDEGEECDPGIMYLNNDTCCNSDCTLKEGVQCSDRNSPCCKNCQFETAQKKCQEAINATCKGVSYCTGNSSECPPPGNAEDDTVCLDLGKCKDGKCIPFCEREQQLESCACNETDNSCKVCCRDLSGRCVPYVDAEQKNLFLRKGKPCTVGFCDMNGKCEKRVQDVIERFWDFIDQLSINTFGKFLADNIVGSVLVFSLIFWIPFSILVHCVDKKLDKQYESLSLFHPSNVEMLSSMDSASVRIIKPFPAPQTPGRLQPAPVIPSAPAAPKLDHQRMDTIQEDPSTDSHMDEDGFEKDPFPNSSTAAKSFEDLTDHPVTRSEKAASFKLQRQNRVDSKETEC

B1: hz1022C3 (antibody, V domains shown)
VH: QVQLQESGPGLVKPSETLSLTCTVSGFSLDTSGMGVSWIRQPAGKGLEWIGHIYWDDDKRYNPSLKSRVTMSKDTSSNQVSLKLSSVTAADTAVYYCARRSHFGNYYYAMDYWGQGTTVTVSS
VL: DIQMTQSPSSLSASVGDRVTITCRASQDISSYLNWYQQKPGKAPKLLIFYTSRLQSGVPSRFSGSGSGTDFTLTISSLQPEDFATYYCQQGKTLPLTFGGGTKVEIK
notes: also called mAb hz1022C3; anti-ADAM17 mAb (hz1022C3)
binding result (Peptide_024): no binding (tested: 100 µg/ml) | binding result (Peptide_022): no binding (tested: 100 µg/ml) | binding result (Peptide_025): no binding (tested: 100 µg/ml) | binding result (Peptide_014): no binding (tested: 100 µg/ml) | binding result (Peptide_028): no binding (tested: 100 µg/ml) | binding result (Peptide_029): no binding (tested: 100 µg/ml) | binding result (Peptide_021): no binding (tested: 100 µg/ml) | binding result (Peptide_009): no binding (tested: 100 µg/ml) | binding result (Peptide_011): no binding (tested: 100 µg/ml) | binding result (Peptide_026): no binding (tested: 100 µg/ml) | binding result (Peptide_027): no binding (tested: 100 µg/ml) | binding result (Peptide_004): no binding (tested: 100 µg/ml) | binding result (Peptide_008): no binding (tested: 100 µg/ml) | binding result (Peptide_030): no binding (tested: 100 µg/ml) | binding result (Peptide_023): no binding (tested: 100 µg/ml) | binding result (Peptide_001): no binding (tested: 100 µg/ml) | binding result (Peptide_019): no binding (tested: 100 µg/ml) | binding result (Peptide_010): no binding (tested: 100 µg/ml) | binding result (Peptide_018): no binding (tested: 100 µg/ml) | binding result (Peptide_032): no binding (tested: 100 µg/ml) | binding result (Peptide_031): no binding (tested: 100 µg/ml) | binding result (Peptide_007): no binding (tested: 100 µg/ml) | binding result (Peptide_015): no binding (tested: 100 µg/ml) | binding result (Peptide_016): no binding (tested: 100 µg/ml) | binding result (Peptide_006): no binding (tested: 100 µg/ml) | binding result (Peptide_012): no binding (tested: 100 µg/ml) | binding result (Peptide_005): no binding (tested: 100 µg/ml) | IC50 of inhibition of cellular shedding of (mutated pro-)TNFα-Nluc [1]: 0.16 nM | IC50 of inhibition of cellular shedding of AREG-Nluc from A431 cells [1]: 0.16 nM | IC50 of inhibition of cellular shedding of HB-EGF-Nluc from A431 cells [1]: 0.19 nM | IC50 of inhibition of cellular shedding of TGFα-Nluc from A431 cells [1]: 0.12 nM | IC50 of inhibition of cellular shedding, mean of the four substrates [1]: 0.16 nM
